# Test results from patent US20240417704.
# Legend:
# [1] = biological target: Hel308 Mbu-E284Faz E284Faz (Methanococcoides burtonii) (UniProt Q12WZ6); conditions: four nitroindoles between SEQ 155 3' end and SEQ 154 5' end; percent of movements reaching polyT; nanopore; 960 mM KCl, 10 mM MgCl2, 1 mM ATP, +120 mV
# [2] = biological target: Hel308 Mbu-E284Faz heat treated E284Faz (Methanococcoides burtonii) (UniProt Q12WZ6); conditions: four nitroindoles between SEQ 155 3' end and SEQ 154 5' end; percent of movements reaching polyT; 500 nM enzyme; nanopore; 960 mM KCl, 10 mM MgCl2, 1 mM ATP
# Hel308 Mbu-E284Faz heat treated E284Faz (Methanococcoides burtonii), sequence (Q12WZ6 whole entry): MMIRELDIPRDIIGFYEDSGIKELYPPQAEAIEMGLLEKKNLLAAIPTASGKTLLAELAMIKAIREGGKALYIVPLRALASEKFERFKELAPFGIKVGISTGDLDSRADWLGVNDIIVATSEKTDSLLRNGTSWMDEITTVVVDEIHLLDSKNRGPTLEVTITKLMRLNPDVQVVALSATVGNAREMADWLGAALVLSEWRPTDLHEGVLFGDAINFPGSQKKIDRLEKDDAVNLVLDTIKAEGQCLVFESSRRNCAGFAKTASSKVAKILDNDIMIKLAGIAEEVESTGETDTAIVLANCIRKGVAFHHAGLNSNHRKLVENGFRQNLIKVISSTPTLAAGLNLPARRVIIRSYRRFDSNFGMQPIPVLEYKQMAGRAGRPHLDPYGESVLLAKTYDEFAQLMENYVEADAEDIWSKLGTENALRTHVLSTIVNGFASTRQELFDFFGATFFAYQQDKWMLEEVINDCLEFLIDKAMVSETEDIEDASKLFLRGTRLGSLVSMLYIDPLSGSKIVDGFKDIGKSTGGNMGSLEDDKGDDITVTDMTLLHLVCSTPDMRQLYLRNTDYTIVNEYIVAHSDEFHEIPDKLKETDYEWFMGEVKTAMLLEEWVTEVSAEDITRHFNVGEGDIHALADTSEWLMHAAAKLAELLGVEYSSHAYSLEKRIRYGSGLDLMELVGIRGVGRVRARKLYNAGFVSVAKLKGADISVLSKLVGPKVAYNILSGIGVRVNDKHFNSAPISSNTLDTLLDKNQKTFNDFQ
# Hel308 Mbu-E284Faz E284Faz (Methanococcoides burtonii), sequence (Q12WZ6 whole entry): as above
substance,measurement,setting,value
3.6 kb DNA,activity,[1],28%
same,activity,[2],71%
